This note sets out measurements from paper doi:10.1101/467423 (bioRxiv, 2018).

This data set concerns the molecule itself. Put plainly: negative-stain electron microscopy.

B1: Plasmodium falciparum actin I K270M mutant (natural protein)
chain: not shown
On to B1, for which the binding result is “binds”.
